Several values for one entry are separate records, joined by “and”; a condition that tells them apart may be missing. Identical values can stand only once.
Key:
[1] = Absorption and emission spectrum peak wavelengths of UV wavelength conversion substances; type: physicochemical
Human dermal fibroblasts [2] = test: Restoration of cell activity decreased by prior UV irradiation (AlamarBlue); type: cell-based; details: pre-irradiation 400 mJ/cm^2 without substance, then UV 0 to 200 mJ/cm^2 through 0.4% or 2% C-phycocyanin; effect equivalent at both concentrations; FIG. 5
Procedure: (§1) 1. Human dermal fibroblasts and human skin keratinocytes purchased from Kurabo Industries Ltd. were used. A cell suspension (1 mL) stored in liquid nitrogen was thawed in a water bath (37° C.) to an extent that small ice pellets remained, and then diluted with 9 mL of warm medium. 2. The diluted suspension was mixed gently and then transferred to a T75 flask and incubated overnight at 37° C. 3. The next day, the medium was replaced with 10 mL of fresh medium. 4. The medium was replaced periodically (once every 2 days for fibroblasts and once every 2 to 3 days for keratinocytes) and cell proliferation was continued. Meanwhile, the cells were observed using a microscope, and it was confirmed that the cells grew in the correct form. 5. After the cells reached about 80% confluence, the cells were passaged. The cells were passaged by washing the cells once with 10 mL of warm PBS, adding 5 mL of warm trypsin to a T75 flask, covering the bottom of the flask with a trypsin solution, followed by aspirating at room temperature for 1 minute. 6. The flask was allowed to stand in an oven at 37° C. for (maximum) 2 minutes for fibroblasts and (maximum) 7 minutes for keratinocytes. The cells were observed using a microscope and confirmed to be small and oval. 7. Thereafter, the side of the T75 flask was lightly tapped to release the cells. […]

Human dermal fibroblasts [3] = test: Cell activity (AlamarBlue) of cells UV-irradiated through a solution of UV wavelength conversion substance; type: cell-based; details: UV 0 to 100 mJ/cm^2, FIG. 3
Procedure: The UV wavelength conversion substances (3) and (4) were dispersed in alcohol to prepare 5% and 10% dispersions.
as §1, with “7.” for “7. Thereafter, the side of the T75 flask was lightly tapped to release the cells.”

## B-phycoerythrin
[1]
  absorption spectrum peak wavelength: 305 nm
  emission spectrum peak wavelength: 570 nm and 610 nm

## C-phycocyanin
Human dermal fibroblasts [2]
  cell activity after activity was once decreased by UV: cell activity was recovered
Human dermal fibroblasts [3]; 0.4% C-phycocyanin solution
  cell activity (relative fluorescence intensity, AlamarBlue): the decrease in cell activity was suppressed
Human dermal fibroblasts [3]; 2% C-phycocyanin solution, compared to no UV irradiation
  cell activity (relative fluorescence intensity, AlamarBlue): the cell activity was even increased
[1]
  absorption spectrum peak wavelength: 350 nm
  emission spectrum peak wavelength: 640 nm and 700 nm

— patent US20220175647A1, “COSMETIC PREPARATION CONTAINING ULTRAVIOLET WAVELENGTH CONVERSION MATERIAL AND WATER-SOLUBLE THICKENING AGENT” (Shiseido Company, Ltd., priority 2019, published 2022)
